Experimental data: patent US6512097
Numbering of substitutions follows the chain as printed. Read-outs that look alike come from different tables or passages of the source.

B1: C6H1 (scFv)
chain: QVQLVESGAEVKKPRESLKISCKGSGYSFTSYEIAWVRQMPGKGLEYMGLIYPGDSDTKYSPSFQGQVTISVDKSVSTAYLQWSSLKPSDTAMYYCARHDVGYCSSSNCAKWPEYFQHWGQGTLVTVSSGGGGSGGGGSGGGGSQSVLTQPPSVSAAPGQKVTISCSGSSSNIGNNYVSWYQQLPGTAPKLLIYGHTNRPAGVPDRFSGSKSGTSASLAISGFRSEDEADYYCAAWDDSLSGWVFGGGTKLTVLG
B2: C6H1L1 (scFv)
chain: B1 chain with A156G, K161W, G195D, H196N, T197N, N198K, A201S, K211Q, F223L
B3: C6ML3-9 (scFv)
scFv: QVQLLQSGAELKKPGESLKISCKGSGYSFTSYWIAWVRQMPGKGLEYMGLIYPGDSDTKYSPSFQGQVTISVDKSVSTAYLQWSSLKPSDSAVYFCARHDVGYCSSSNCAKWPEYFQHWGQGTLVTVSSGGGGSGGGGSGGGGSQSVLTQPPSVSAAPGQKVTISCSGSSSNIGNNYVSWYQQLPGTAPKLLIYGHTNRPAGVPDRFSGSKSGTSASLAISGFRSEDEADYYCASWDYTLSGWVFGGGTKLTVLG
notes: template (wt) of the VH CDR3 libraries; also called C6ML3-9 (wt); C6ML-9
B4: C6ML3-23 (scFv)
scFv: B3 scFv with Y238H, T239S, S241W
B5: C6MH3-D2 (scFv)
scFv: B3 scFv with Y115W, F116L, Q117G, H118V
notes: C6ML3-9 sFv, VH CDR3 library D mutant
B6: C6ML3-29 (scFv)
scFv: B3 scFv with S235A, Y238G, S241W
B7: C6MH3-C4 (scFv)
scFv: B3 scFv with K111V
notes: C6ML3-9 sFv, VH CDR3 library C mutant; also called mutant sFv K100gV
B8: C6MH3-B1 (scFv)
scFv: B3 scFv with S105T, S106D, S107R, N108T
notes: C6ML3-9 sFv, VH CDR3 library B mutant; also called CH3-B1
B9: C6MH3-B47 (scFv)
scFv: B3 scFv with S105T, S106D, S107R, N108S
notes: C6ML3-9 sFv, VH CDR3 library B mutant
B10: C6ML3-19 (scFv)
scFv: B3 scFv with Y238R, T239P, S241W
B11: C6ML3-14 (scFv)
scFv: B3 scFv with S235A, Y238D, T239P, S241W
B12: C6ML3-15 (scFv)
scFv: B3 scFv with S235A, Y238R, T239P, S241W
notes: also called C6M13-15
B13: C6H2L1 (scFv)
scFv: QVQLVQSGAEVKKPRESLKISCKGSGYSFTSYWIAWVRQMPGKGLEYMGLIYPADSKTIYSPSFQGQVTISVDKSVSTAYLQWSSLKTSDTAMYYCARHDVGYCSSSNCAKWPEYFQHWGQGTLVTVSSGGGGSGGGGSGGGGSQSVLTQPPSVSGAPGQWVTISCSGSSSNIGNNYVSWYQQLPGTAPKLLIYDNNKRPSGVPDRFSGSQSGTSASLAISGLRSEDEADYYCAAWDDSLSGWVFGGGTKLTVLG

Key:
Assay in all cases: SPR BIAcore
[1] = molecular target: T1, c-erbB-2 ECD with a Ser-Gly-His6 C-terminal fusion (UniProt P04626 23-652)
T1 construct: extracellular domain; Expressed from CHO cells, IMAC purified; coupled to a CM5 chip, coated on plates, or biotinylated with NHS-LC-biotin; also called c-erbB-2 extracellular domain; biotinylated c-erbB-2 ECD

[2] = molecular target: T1, c-erbB-2 ECD with a Ser-Gly-His6 …; remark: listed apart in the source
Experimental: (§1) All assays were performed in triplicate. Briefly, […] of radioiodinated sFv was added to 5×10^6 SK-OV cells in the presence of increasing concentrations of unlabeled sFv from the same preparation. After a 30 minute incubation at 20° C., the samples were washed with PBS at 4° C. and centrifuged at 500 g. The amount of labeled sFv bound to the cells was determined by counting the pellets in a gamma counter and the K_a, and K_d were calculated using the EBDA program (V 2.0, G. A. McPherson, 1983). The K_d of all the other isolated sFv were determined using surface plasmon resonance in a BIAcore (Pharmacia). In a BIAcore flow cell, approximately 1400 resonance units (RU) of c-erbB-2 ECD (25 μg/ml in 10 mM sodium acetate, pH 4.5) was coupled to a CM5 sensor chip (Johnsson et al. (1991), supra). Association and dissociation-rates were measured under continuous flow of […] using a concentration range from 50 to 800 nM. Rate constant $kon$ was determined from a plot of (1(dR/dt))/t vs concentration (Karlsson et al. (1991), supra). Rate constant $Hoff$ was determined from the dissociation part of the sensorgram at the highest concentration of sFv analyzed.

[3] = molecular target: T1, c-erbB-2 ECD with a Ser-Gly-His6 …; remark: listed apart in the source
[4] = molecular target: T1, c-erbB-2 ECD with a Ser-Gly-His6 …; remark: listed apart in the source
Experimental: as §1
Dashes indicate sequence identity. Mutations arising from PCR error and located outside V_H CDR3 are listed under the heading other mutations. F = frequency of isolated scFv. *$koff$ determined from unpurified scFv samples. Underline indicates mutated residue.

[5] = molecular target: T1, c-erbB-2 ECD with a Ser-Gly-His6 …; remark: listed apart in the source

Binder	Kd [3]	koff [3]	Kd [4]	koff [4]	Kd [5]	koff [5]	further results
B1	–	–	–	–	–	–	fold higher affinity than C6.5 [1]: 3 fold; Kd [2]: 5.9 nM
B2	–	–	–	–	–	–	Kd [2]: 15 nM
B3	1 nM	0.00092 s⁻¹	1 nM	0.00076 s⁻¹	1 nM	0.00019 s⁻¹	t1/2 calculated from koff [1]: 0.217 h
B4	1.5 nM	0.0017 s⁻¹	–	–	1.5 nM	0.001 s⁻¹	–
B5	–	–	0.16 nM	0.0002 s⁻¹	–	–	fold change of Kd against wt C6ML3-9 [1]: 7 fold
B6	2.7 nM	0.0022 s⁻¹	–	–	1.7 nM	0.0022 s⁻¹	–
B7	–	–	0.37 nM	0.0002 s⁻¹	–	–	fold lower Kd than wt [1]: 2.7 fold; fold lower koff than C6ML3-9 [1]: 3.8 fold
B8	–	–	0.16 nM	6.7e-05 s⁻¹	–	–	Kd [1]: 0.12 nM; koff [1]: 6e-05 s⁻¹; t1/2 calculated from koff [1]: 2.25 h
B9	–	–	0.11 nM	7.5e-05 s⁻¹	–	–	fold lower Kd than C6ML3-9 [1]: 9 fold; fold lower Kd than C6.5 [1]: 145 fold; fold lower koff than C6ML3-9 [1]: 10 fold; fold lower koff than C6.5 [1]: 84 fold
B10	1.5 nM	0.001 s⁻¹	–	–	1.5 nM	0.001 s⁻¹	–
B11	1 nM	0.00077 s⁻¹	–	–	1.1 nM	0.00076 s⁻¹	–
B12	2.2 nM	–	–	–	2.2 nM	–	–
B13	–	–	–	–	–	–	Kd [2]: 6 nM
